B1: ASPP2 (1-1128) (protein)
chain: MMPMFLTVYLSNNEQHFTEVPVTPETICRDVVDLCKEPGESDCHLAEVWCGSERPVADNERMFDVLQRFGSQRNEVRFFLRHERPPGRDIVSGPRSQDPSLKRNGVKVPGEYRRKENGVNSPRMDLTLAELQEMASRQQQQIEAQQQLLATKEQRLKFLKQQDQRQQQQVAEQEKLKRLKEIAENQEAKLKKVRALKGHVEQKRLSNGKLVEEIEQMNNLFQQKQRELVLAVSKVEELTRQLEMLKNGRIDSHHDNQSAVAELDRLYKELQLRNKLNQEQNAKLQQQRECLNKRNSEVAVMDKRVNELRDRLWKKKAALQQKENLPVSSDGNLPQQAASAPSRVAAVGPYIQSSTMPRMPSRPELLVKPALPDGSLVIQASEGPMKIQTLPNMRSGAASQTKGSKIHPVGPDWSPSNADLFPSQGSASVPQSTGNALDQVDDGEVPLREKEKKVRPFSMFDAVDQSNAPPSFGTLRKNQSSEDILRDAQVANKNVAKVPPPVPTKPKQINLPYFGQTNQPPSDIKPDGSSQQLSTVVPSMGTKPKPAGQQPRVLLSPSIPSVGQDQTLSPGSKQESPPAAAVRPFTPQPSKDTLLPPFRKPQTVAASSIYSMYTQQQAPGKNFQQAVQSALTKTHTRGPHFSSVYGKPVIAAAQNQQQHPENIYSNSQGKPGSPEPETEPVSSVQENHENERIPRPLSPTKLLPFLSNPYRNQSDADLEALRKKLSNAPRPLKKRSSITEPEGPNGPNIQKLLYQRTTIAAMETISVPSYPSKSASVTASSESPVEIQNPYLHVEPEKEVVSLVPESLSPEDVGNASTENSDMPAPSPGLDYEPEGVPDNSPNLQNNPEEPNPEAPHVLDVYLEEYPPYPPPPYPSGEPEGPGEDSVSMRPPEITGQVSLPPGKRTNLRKTGSERIAHGMRVKFNPLALLLDSSLEGEFDLVQRIIYEVDDPSLPNDEGITALHNAVCAGHTEIVKFLVQFGVNVNAADSDGWTPLHCAASCNNVQVCKFLVESGAAVFAMTYSDMQTAADKCEEMEEGYTQCSQFLYGVQEKMGIMNKGVIYALWDYEPQNDDELPMKEGDCMTIIHREDEDEIEWWWARLNDKEGYVPRNLLGLYPRIKPRQRSLA
B2: Apoptosis Stimulating Protein 1 (ASPP1) (protein)
chain: MMPMILTVFLSNNEQILTEVPITPETTCRDVVEFCKEPGEGSCHLAEVWRGNERPIPFDHMMYEHLQIWGPRREEVKFFLRHEDSPTENSEQGGRQTQEQRTQRNVINVPGDKRTEYGVGNPRVELTLSELQDMAARQQQQIENQQQMLVAKEQRLHFLKQQERRQQQSISENEKLQKLKERVEAQENKLKKIRAMRGQVDYSKIMNGNLSAEIERFSAMFQEKKQEVQTAILRVDQLSQQLEDLKKGKLNGFQSYNGKLTGPAAVELKRLYQELQIRNQLNQEQNSKLQQQKELLNKRNMEVAMMDKRISELRERLYGKKIQLNRVNGTSSPQSPLSTSGRVAAVGPYIQVPSAGSFPVLGDPIKPQSLSIASNAAHGRSKSANDGNWPTLKQNSSSSVKPVQVAGADWKDPSVEGSVKQGTVSSQPVPFSALGPTEKPGIEIGKVPPPIPGVGKQLPPSYGTYPSPTPLGPGSTSSLERRKEGSLPRPSAGLPSRQRPTLLPATGSTPQPGSSQQIQQRISVPPSPTYPPAGPPAFPAGDSKPELPLTVAIRPFLADKGSRPQSPRKGPQTVNSSSIYSMYLQQATPPKNYQPAAHSALNKSVKAVYGKPVLPSGSTSPSPLPFLHGSLSTGTPQPQPPSESTEKEPEQDGPAAPADGSTVESLPRPLSPTKLTPIVHSPLRYQSDADLEALRRKLANAPRPLKKRSSITEPEGPGGPNIQKLLYQRFNTLAGGMEGTPFYQPSPSQDFMGTLADVDNGNTNANGNLEELPPAQPTAPLPAEPAPSSDANDNELPSPEPEELICPQTTHQTAEPAEDNNNNVATVPTTEQIPSPVAEAPSPGEEQVPPAPLPPASHPPATSTNKRTNLKKPNSERTGHGLRVRFNPLALLLDASLEGEFDLVQRIIYEVEDPSKPNDEGITPLHNAVCAGHHHIVKFLLDFGVNVNAADSDGWTPLHCAASCNSVHLCKQLVESGAAIFASTISDIETAADKCEEMEEGYIQCSQFLYGVQEKLGVMNKGVAYALWDYEAQNSDELSFHEGDALTILRRKDESETEWWWARLGDREGYVPKNLLGLYPRIKPRQRTLA

Biological target: p73α (UniProt O15350)
Sequence (O15350 whole entry): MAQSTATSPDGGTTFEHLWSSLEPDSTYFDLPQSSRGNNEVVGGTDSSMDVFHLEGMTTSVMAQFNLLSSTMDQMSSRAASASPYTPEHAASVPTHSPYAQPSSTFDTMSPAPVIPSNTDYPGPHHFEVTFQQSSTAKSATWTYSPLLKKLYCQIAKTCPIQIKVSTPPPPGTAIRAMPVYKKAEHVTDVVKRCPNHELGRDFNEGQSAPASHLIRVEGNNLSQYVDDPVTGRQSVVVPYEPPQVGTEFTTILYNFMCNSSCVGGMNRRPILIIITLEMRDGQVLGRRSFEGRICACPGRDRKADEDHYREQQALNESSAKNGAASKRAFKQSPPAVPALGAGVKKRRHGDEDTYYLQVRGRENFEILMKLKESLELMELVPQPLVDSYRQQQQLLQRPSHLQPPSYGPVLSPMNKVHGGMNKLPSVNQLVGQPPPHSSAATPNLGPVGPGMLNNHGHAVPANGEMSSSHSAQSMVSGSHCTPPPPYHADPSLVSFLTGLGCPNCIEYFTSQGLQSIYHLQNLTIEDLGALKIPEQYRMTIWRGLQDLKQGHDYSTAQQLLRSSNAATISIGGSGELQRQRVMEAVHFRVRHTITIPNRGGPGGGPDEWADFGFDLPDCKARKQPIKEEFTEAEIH
Experiment: cell-based or functional assay

Binder | transactivation function on the Bax promoter (Bax-luc reporter) [fold]
B1 | 6
B2 | 3
